Data published in article PMC6684861 (Traffic (Copenhagen, Denmark), 2018).
No end group written: not given here.

Biological target: His-tagged murine Importin α1 with the Importin β binding domain (IBB) deleted (ImpαΔIBB) (murine, UniProt P52293 70-529)
Test: crystal structure

Binder | binding result
Ac-SHLSPRKKRPRQTGAL [TdT NLS peptide for crystallization, Ac-S7HLSPRKKRPRQTGAL] | binds
Ac-RGILKAFPKRQKIHADASSKVLAKIPRRE [pol λ NLS peptide for crystallization, Ac-R4GILKAFPKRQKIHADASSKVLAKIPRRE] | binds
Ac-LPKRRRARVGSPSGDAASSTPPSTRFPGV [pol μ NLS peptide for crystallization, Ac-L2PKRRRARVGSPSGDAASSTPPSTRFPGV] | binds
